One may read the stoichiometry N as a count of units in the complex or per binding partner.

The series deals with the molecule itself. The series is described as follows: SEC; analytical SEC; purified protein about 2 mg/ml in PBS; TSKgel G4000SWxl; mobile phase 90% phosphate buffer (50 mM sodium phosphate, 200 mM NaCl, pH 7.2) and 10% ethanol; BioRad gel filtration standard as markers. For orientation: SEC sorts molecules by how far they enter the pores of the column.

B1: HsTP^218 (human thymidine phosphorylase truncated before K34, C-terminal His6-tag) (enzyme)
chain: MGKQLPELIRMKRDGGRLSEADIRGFVAAVVNGSAQGAQIGAMLMAIRLRGMDLEETSVLTQALAQSGQQLEWPEAWRQQLVDKHSTGGVGDKVSLVLAPALAACGCKVPMISGRGLGHTGGTLDKLESIPGFNVIQSPEQMQVLLDQAGCCIVGQSEQLVPADGILYAARDVTATVDSLPLITASILSKKLVEGLSALVVDVKFGGAAVFPNQEQARELAKTLVGVGASLGLRVAAALTAMDKPLGRCVGHALEVEEALLCMDGAGPPDLRDLVTTLGGALLWLSGHAGTQAQGAARVAAALDDGSALGRFERMLAAQGVDPGLARALCSGSPAERRQLLPRAREQEELLAPADGTVELVRALPLALVLHELGAGRSRAGEPLRLGVGAELLVDVGQRLRRGTPWLRVHRDGPALSGPQSRALQEALVLSDRAPFAAPSPFAELVLPPQQ
notes: starting methionine and a glycine scar residue from cloning with the NcoI site; they precede K34 (M1-G2-K3-Q4); human thymidine phosphorylase (HsTP, TYMP), lacking the first thirty-three residues of the full-length protein; starts at K34, full-length numbering of UniProt P19971; Codon-optimized synthetic gene in pET28a; No cleavage of the His6-tag is described; also called expression-optimized …
With B1, the “stoichiometry N” value was found to be 2.

(Values after publication PMC8718881, “Engineering of the Recombinant Expression and PEGylation Efficiency of the Therapeutic Enzyme Human Thymidine Phosphorylase” (Frontiers in Bioengineering and Biotechnology, 2021).)
